Assay [1] deals with T1, full-length recombinant GLK1 (Arabidopsis thaliana, UniProt Q9SIV3 1-420).
T1 sequence (looked up): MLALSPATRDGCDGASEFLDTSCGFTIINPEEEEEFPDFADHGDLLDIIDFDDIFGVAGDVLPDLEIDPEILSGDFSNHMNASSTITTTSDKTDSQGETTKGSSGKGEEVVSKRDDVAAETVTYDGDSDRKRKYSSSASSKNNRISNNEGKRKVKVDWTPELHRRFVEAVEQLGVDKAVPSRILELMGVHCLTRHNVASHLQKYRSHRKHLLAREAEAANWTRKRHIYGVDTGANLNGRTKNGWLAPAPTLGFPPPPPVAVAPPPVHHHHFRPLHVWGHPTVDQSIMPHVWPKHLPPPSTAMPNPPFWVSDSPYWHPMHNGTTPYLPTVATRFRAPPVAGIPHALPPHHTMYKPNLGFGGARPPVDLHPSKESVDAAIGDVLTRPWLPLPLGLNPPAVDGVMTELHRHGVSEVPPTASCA
Nature of the assay: SEC.

The target of assay [2] is T2, full-length recombinant GLK2 (Arabidopsis thaliana, UniProt Q9FFH0 1-386).
T2 sequence (looked up): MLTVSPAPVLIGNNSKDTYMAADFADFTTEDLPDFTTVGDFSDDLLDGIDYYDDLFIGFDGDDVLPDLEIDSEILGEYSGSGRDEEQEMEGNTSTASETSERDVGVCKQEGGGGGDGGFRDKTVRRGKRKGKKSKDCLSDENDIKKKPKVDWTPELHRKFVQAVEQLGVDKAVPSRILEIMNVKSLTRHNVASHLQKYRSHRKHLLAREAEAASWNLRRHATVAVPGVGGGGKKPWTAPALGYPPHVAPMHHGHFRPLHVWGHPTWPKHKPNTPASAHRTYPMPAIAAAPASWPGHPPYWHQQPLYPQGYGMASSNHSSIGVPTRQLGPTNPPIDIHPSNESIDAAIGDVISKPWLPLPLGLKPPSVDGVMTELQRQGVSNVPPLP
The assay is described as follows: SEC. A general note: Size exclusion chromatography separates by hydrodynamic size, large species first.

B1: full-length recombinant LSD1 (natural protein, Arabidopsis thaliana, UniProt P94077 1-189, looked up)
chain: MKVADMQDQLVCHGCRNLLMYPRGASNVRCALCNTINMVPPPPPPHDMAHIICGGCRTMLMYTRGASSVRCSCCQTTNLVPAHSNQVAHAPSSQVAQINCGHCRTTLMYPYGASSVKCAVCQFVTNVNMSNGRVPLPTNRPNGTACPPSTSTSTPPSQTQTVVVENPMSVDESGKLVSNVVVGVTTDKK
As for B1, the binding result in assay [1] and in assay [2] was “binds” each time.

Source of the values: article doi:10.1101/2020.11.22.393603 (bioRxiv, 2020).
